Values quoted from earlier work as cited in article PMC5323041.
Like-named read-outs stand apart in the source and are kept apart here.

What was measured:
oxytocin (Mus musculus) [1] = target: oxytocin (Mus musculus) (UniProt P35454)
oxytocin (Mus musculus) [2] = target: oxytocin (Mus musculus) (UniProt P35454); remark: listed apart in the source

UniProt P35454, sequence (P35454 whole entry, looked up): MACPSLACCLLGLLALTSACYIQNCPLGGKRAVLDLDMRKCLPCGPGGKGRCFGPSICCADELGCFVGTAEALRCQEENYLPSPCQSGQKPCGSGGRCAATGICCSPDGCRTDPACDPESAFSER

Kd (oxytocin (Mus musculus) [1])	Kd (oxytocin (Mus musculus) [2])	Substance
25 nM		vasopressin V1a receptor (from UniProt Q62463)
	1 nM	oxytocin receptor (from UniProt P97926)
